# Numbering of substitutions follows the chain as printed. Names and notes keep the numbering of the source.
# B1: chimeric IgG (antibody, V domains shown)
# VH: EVQLVESGGDLVKPGGSLKLSCAASGFVFSRYDMAWVRQTPEKRLEWVAFISGGGSNTYYPDTVKGRFTISRDNAKNTLYLQMTSLKSEDTAVYYCISPYYYAMEYWGQGTSVTVSS
# VL: DIVMTQSHKFISTSVGDRVSITCKASQDVDTAVAWYQQKPGQSPKLLIHWASTRHTGVPDRFTGGGSGTDFTLTLSNVQSEDLADYFCQQYSTFPWTFGGGTRLEIKR
# notes: Full-length IgG from HEK293-6E cells; also called murine-human chimeric antibody derived from PD1#3
# B2: Fab 2 (Fab, V domains shown)
# VH: EVQLVESGGGLVQPGGSLRLSCAASGFVFSRYDMAWVRQTPGKGLEWVSFISGGGSNTYYPDTVKGRFTISRDNSKNTLYLQMNSLRAEDTAVYYCISPYYYAMEYWGQGTTVTVSS
# VL: DIQMTQSPSSISTSVGDRVTITCKASQDVDTAVAWYQQKPGKSPKLLIHWASTRHTGVPSRFSGSGSGTDFTLTLSSVQPEDLADYFCQQYSTFPWTFGGGTKLEIK
# notes: Crude Fab from E. coli; also called PD1-BM VH-A49S
# B3: Fab 4 (Fab, V domains shown)
# VH: B2 VH with S49A, S98K
# VL: B2 VL
# notes: Crude Fab from E. coli; also called PD1-BM VH-S98K
# Experiments:
# [1] = target: T1, His-tagged human PD-1 protein (human, UniProt Q15116 25-170, limits assumed); assay: SPR (Biacore T200); antibody captured by anti-human Fc gamma, His-tagged human PD-1 as analyte
# T1 construct: SPR analyte; also called his-tagged antigen PD-1; not shown: His tag
# T1 sequence (Q15116 25-170 limits assumed): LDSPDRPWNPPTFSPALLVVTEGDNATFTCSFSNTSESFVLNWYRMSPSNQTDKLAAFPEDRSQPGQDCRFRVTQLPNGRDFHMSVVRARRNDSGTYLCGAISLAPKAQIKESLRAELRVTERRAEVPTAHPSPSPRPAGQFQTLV
# Method: Using the HCVR sequence and LCVR sequence of mAb PD1#3, a murine-human chimeric Fab (hereinafter “chimeric IgG”) was prepared which comprised the heavy chain sequence set forth in SEQ ID NO: 32 and the light chain sequence set forth in SEQ ID NO: 34. The heavy chain and light chain of the chimeric IgG are encoded by the nucleic acids set forth in SEQ ID NOs: 33 and 35, respectively. Nucleic acids encded by SEQ ID NO: 33 and SEQ ID NO: 35 which include a leader sequence were amplified and inserted into pTT5 to make an expression plasmid of the full-length IgG. The heavy chain and light chain expression plasmids were used to co-transfect 100 mL HEK293-6E cells. The recombinant IgG secreted into to media was purified using protein A affinity. The purified IgG migrated as ˜170 kDa band in SDS-PAGE under non-reducing conditions, ˜55 kDa and ˜30 kDA bands under reducing condition. The purity of the chimeric IgG is >90%, and the yield form the 100 mL culture was 0.46 mg. The binding affinity between the chimeric IgG and PD1/Fc fusion protein was determined using a Surface Plasmon Resonance (SPR) biosensor, Biacore T200 (GE Healthcare). PD1#3 was immobilized on the sensor chip pre-coated with anti-human Fc gamma. His-tagged human PD-1 protein was used as analyte.
# [2] = target: T1, His-tagged human PD-1 protein; assay: SPR (Biacore T200); IgG captured by anti-human Fc gamma, His-tagged human PD-1 as analyte, 1:1 model
# Method: The binding affinity of the purified IgGs to human PD-1 protein were determined using a Surface Plasmon Resonance (SPR) biosensor, Biacore T200 (GE Healthcare). Antibodies were captured on the sensor chip pre-coated with anti-human Fc gamma. His-tagged human PD-1 protein was used as analyte. The data of dissociation (kd) and association (kₐ) rate constants were obtained using Biacore T200 evaluation software. The equilibrium dissociation constants (KD) were calculated from the ratio of kd over kₐ. Binding data for each antibody was processed and fitted to 1:1 interaction model using Biacore T200 evaluation software. All experimental data could be well fitted to the model.
# human PD-1 [3] = target: T2, human PD-1 (human, UniProt Q15116 25-167); assay: SPR, multiple-cycle, crude Fab from E. coli; antigen form not stated
# T2 construct: The immunogen was PD1/Fc (Leu25-Gln167 fused to human IgG1 Pro100-Lys330); also called huPD-1; hPD-1
# T2 sequence (Q15116 25-167 limits assumed): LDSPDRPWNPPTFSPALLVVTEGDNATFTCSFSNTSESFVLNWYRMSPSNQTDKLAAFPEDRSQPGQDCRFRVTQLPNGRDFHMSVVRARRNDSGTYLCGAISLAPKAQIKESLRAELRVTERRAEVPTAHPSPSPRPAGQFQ
# Text: (§1) A homology model of mouse anti-PD1 Fv was built wherein putative back mutation sites (i.e., buried residues of the frameworks that are different in the mouse and human acceptor sequences) were identified. There were a total of 14 putative back mutation sites. A variant humanized Fab comprising all 14 of the putative back mutation sites of PD1-grafted Ab mutated back to their mouse counterparts (hereinafter identified as “PD1-BM Ab”) comprising the heavy chain variable region sequence set forth in SEQ ID NO: 38 and the light chain variable region sequence set forth in SEQ ID NO: 39, was synthesized. In addition, 14 variants of PD1-BM Ab (hereinafter identified as Fabs 1-14), each having at least one of the putative 14 back mutation sites in PD1-BM Ab mutated back to the human counterpart, were synthesized. These constructs were used to transform E. coli TG1 strain. Single colonies were pick for each individual construct and grown in E. coli medium. Crude chimeric and humanized Fabs were collected and subjected to multiple-cycle affinity estimation by Surface Plasmon Resonance (SPR).
# human PD-1 [4] = target: T2, human PD-1; assay: SPR, multiple-cycle, crude Fab from E. coli; antigen form not stated; footnote: *out of the detection limit
# Text: as §1
# human PD-1 [5] = target: T2, human PD-1; assay: SPR, multiple-cycle, crude Fab from E. coli
# Text: as §1
binder,measurement,setting,value
B1,Kd,[1],0.48 nM
same,Kd,[2],0.487 nM
same,koff,[2],0.000129 s⁻¹
same,kon,[2],265000 M⁻¹ s⁻¹
B2,kon,human PD-1 [3],320000 M⁻¹ s⁻¹
same,Kd,human PD-1 [4],≤ 0.025 nM
same,koff,human PD-1 [4],< 8.1e-06 s⁻¹
B3,binding result,human PD-1 [5],no binding

# Reference: patent US20190330346A1 (REMD BIOTHERAPEUTICS, published 2019)
